# From patent EP3911180B1, “PAENIBACILLUS WYNNII BETA-GALACTOSIDASE FOR THE PRODUCTION OF LACTOSE-DEPLETED AND GOS-ENRICHTED DAIRY PRODUCTS” (Universität Hohenheim, priority 2019, dated 2020)
# Substrate: OC[C@H]1O[C@@H](O[C@H]2[C@H](O)[C@@H](O)C(O)O[C@@H]2CO)[C@H](O)[C@@H](O)[C@H]1O
# Assay: Determination of KM with lactose as substrate
# Type: biochemical, Paenibacillus wynnii
# Settings: 8 °C
# Description: For the substrate solution 400 mM lactose was dissolved in Novo buffer (the composition of which is depicted in Table 4). The beta-galactosidase activity was determined in a thermo shaker in 1.5 mL reaction tubes at 8°C. The enzyme mix and the lactose solution were preincubated at 8 °C for 12 min. To start the enzymatic reaction 100 µL of the enzyme mix were added to 100 µL lactose solution. The reaction was carried out for 5 min at 8 °C. The reaction was stopped by adding 300 µL 1 M HClO4 to the enzyme-substrate-mix. The mix was kept on ice for 5 min before it was centrifuged at 13 000 rcf and 4 °C for 5 min. 160 µL of the supernatant were transferred to 75 µL 2 M KOH to neutralise the solution. The neutralisation step was checked using pH paper and the pH was adjusted if necessary. The solution was kept on ice for another 5 min before it was centrifuged at 13 000 rcf at 4 °C for 5 min. All assays were performed in triplicate. Table 4: Composition of Novo buffer
# The kinetic parameters were determined using the natural substrate lactose. The reaction matrices and conditions were chosen in order to simulate conditions in milk systems. The chosen reaction matrices were Novo buffer (cf. Table 4, above) and milk diluted with Novo buffer. The reaction temperature was 8 °C and the pH value was 6.7.
# For the determination of the KM values of P. wynnii beta-galactosidase lactose concentrations ranged from 0.76 mM to 97.5 mM. In order to obtain different lactose concentrations in milk, milk was diluted with Novo buffer. […] The enzyme activities were measured under initial reaction velocity conditions of the enzyme. The reaction times for the initial velocity of the enzymes were determined in previous experiments. The kinetic parameter KM was analysed using the Enzyme Kinetics Module in SigmaPlot 12.5 (Systat Software, Inc., San Jose, USA).
# In the case of the studies in Novo buffer the enzyme activity decreased again with increasing lactose concentration. […] Table 6: Summary of the determined KM values using the Enzyme Kinetics Module in SigmaPlot 12.5. […]
protein,measurement,setting,value
P. wynnii beta-galactosidase (SEQ ID NO: 1) (Paenibacillus wynnii) (protein) MRKKLVYSPPTNGYPEWNNNPECFQINRMDAHATWIPFNTTEDALLGDPQSSPNYLSLNGMWKFAYAETPDQRIRNFFEKNYDCSSWAELNVPSHWQMHGYDYPQYTNVRYPWSEREPELKPPFAPTQYNPVGSYVRTFSVPEDWSGKPVFISFQGVESAFYVWLNGELVGYSEDTFTPAEFDLTPYLIPGDNKLAVEVYRWCDASWLEDQDFWRLSGIFRDVYLYTTPEAHIYDFFVRTELDEQYRHAELQLDVKLMDYFERTAEAVIVHAQLYDHDQNAIFDQPLSQTVYFNSASTQTLQFSSSIIDPLKWSAEHPNLYTLVLSLHHVDGELMEAVSCRVGFRTFELKDGLMKINGKRIVFKGVNRHEFSCDTGRSIDVDDMVRDILLMKAHNINAVRTSHYPNQTIWYDLCDQYGLYVIDETNLETHGSWSYGQTDLGGNTVPGSRPEWRANVLDRCNSMLQRDKNHPSIVIWSLGNESFGGDNFVAMHDFLKKEDPSRLVHYEGLFHYRESDVASDIESTMYISPADVEQYALNDPKKPYILCEYSHAMGNSCGGLHLYWEVFEKYDILQGAFIWDWIDQAIRLKQADGSMHMAYGGDFGESPHDGNFCGNGLIFADRSVSPKLYEVKKCYQNVKFEAVDLERGIYRVTNQNLFTDLAEYALAWEVSCNGNPVLKGTVDLAVPAGESAEISVPVVDEPNLQSEGEHVLTFSLQLKKSTLWADAGHEVAWEQFLLPTPQFMAGQDQDSVLTSDRGVIVEEQAGRLTVQAADVSLQFSTSSGYLISMQNKGKELLLEPVRPNFWRAVTDNDLGNKHHERCAVWNTAGAGCTLASFESHKNVDGVTVRAKYTVPTVPISSLILEYRIQENGSIEVFEELSPGMGLPEIPEIGLMFIVEDRLDTVSWYGRGPHENYWDRKTGARLGYFSGSVQDQFVPYIRPQECGNKTDVRFASITGGINGSGFRVDGDPVLELNALPWTPAELEANDHIYKLPASNKTVVRVNYKQMGVGGDNSWGATTHPEFTLPADQTYGFRFTIRMV,Km,"other: Novo buffer, pH 6.7, A: evaluation according to Michaelis-Menten, pH 6.7",340 ± 84 µM
same,Km,"other: Novo buffer, pH 6.7, B: evaluation under consideration of substrate inhibition, pH 6.7",520 ± 89 µM
same,Km,other: milk + Novo buffer,630 µM
